Test results taken from patent US20060263802A1 (CRUCELL HOLLAND B V, published 2006).

Key:
Test in all cases: PEPSCAN ELISA, looped 15-mer, 10 ug/ml
[1] = biological target: looped peptide … (rabies virus strain ERA)
[2] = biological target: looped peptide … (rabies virus strain ERA); remark: listed apart in the source
[3] = biological target: looped peptide … (rabies virus strain ERA); remark: listed apart in the source
[4] = biological target: looped peptide … (rabies virus strain ERA); remark: listed apart in the source
[5] = biological target: looped peptide … (rabies virus strain ERA); remark: listed apart in the source
[6] = biological target: looped peptide … (rabies virus strain ERA); remark: listed apart in the source
[7] = biological target: looped peptide … (rabies virus strain ERA); remark: listed apart in the source
[8] = biological target: looped peptide … (rabies virus strain ERA); remark: listed apart in the source
[9] = biological target: looped peptide … (rabies virus strain ERA); remark: listed apart in the source
[10] = biological target: looped peptide … (rabies virus strain ERA); remark: listed apart in the source
[11] = biological target: looped peptide … (rabies virus strain ERA); remark: listed apart in the source
[12] = biological target: looped peptide … (rabies virus strain ERA); remark: listed apart in the source
[13] = biological target: looped peptide … (rabies virus strain ERA); remark: listed apart in the source
[14] = biological target: looped peptide … (rabies virus strain ERA); remark: listed apart in the source
[15] = biological target: looped peptide … (rabies virus strain ERA); remark: listed apart in the source
[16] = biological target: looped peptide … (rabies virus strain ERA); remark: listed apart in the source
[17] = biological target: looped peptide … (rabies virus strain ERA); remark: listed apart in the source
[18] = biological target: looped peptide … (rabies virus strain ERA); remark: listed apart in the source
[19] = biological target: looped peptide … (rabies virus strain ERA); remark: listed apart in the source
[20] = biological target: looped peptide … (rabies virus strain ERA); remark: listed apart in the source
[21] = biological target: looped peptide … (rabies virus strain ERA); remark: listed apart in the source
[22] = biological target: looped peptide … (rabies virus strain ERA); remark: listed apart in the source
[23] = biological target: looped peptide … (rabies virus strain ERA); remark: listed apart in the source
[24] = biological target: looped peptide … (rabies virus strain ERA); remark: listed apart in the source
[25] = biological target: looped peptide … (rabies virus strain ERA); remark: listed apart in the source
[26] = biological target: looped peptide … (rabies virus strain ERA); remark: listed apart in the source
[27] = biological target: looped peptide … (rabies virus strain ERA); remark: listed apart in the source
[28] = biological target: looped peptide … (rabies virus strain ERA); remark: listed apart in the source
[29] = biological target: looped peptide … (rabies virus strain ERA); remark: listed apart in the source
[30] = biological target: looped peptide … (rabies virus strain ERA); remark: listed apart in the source
[31] = biological target: looped peptide … (rabies virus strain ERA); remark: listed apart in the source
[32] = biological target: looped peptide … (rabies virus strain ERA); remark: listed apart in the source
[33] = biological target: looped peptide … (rabies virus strain ERA); remark: listed apart in the source
[34] = biological target: looped peptide … (rabies virus strain ERA); remark: listed apart in the source
[35] = biological target: looped peptide … (rabies virus strain ERA); remark: listed apart in the source
[36] = biological target: looped peptide … (rabies virus strain ERA); remark: listed apart in the source
[37] = biological target: looped peptide … (rabies virus strain ERA); remark: listed apart in the source
[38] = biological target: looped peptide … (rabies virus strain ERA); remark: listed apart in the source
[39] = biological target: looped peptide … (rabies virus strain ERA); remark: listed apart in the source
[40] = biological target: looped peptide … (rabies virus strain ERA); remark: listed apart in the source
[41] = biological target: looped peptide … (rabies virus strain ERA); remark: listed apart in the source
[42] = biological target: looped peptide … (rabies virus strain ERA); remark: listed apart in the source
[43] = biological target: looped peptide … (rabies virus strain ERA); remark: listed apart in the source
[44] = biological target: looped peptide … (rabies virus strain ERA); remark: listed apart in the source
[45] = biological target: looped peptide … (rabies virus strain ERA); remark: listed apart in the source
[46] = biological target: looped peptide … (rabies virus strain ERA); remark: listed apart in the source
[47] = biological target: looped peptide … (rabies virus strain ERA); remark: listed apart in the source
[48] = biological target: looped peptide … (rabies virus strain ERA); remark: listed apart in the source
[49] = biological target: looped peptide … (rabies virus strain ERA); remark: listed apart in the source
[50] = biological target: looped peptide … (rabies virus strain ERA); remark: listed apart in the source
[51] = biological target: looped peptide … (rabies virus strain ERA); remark: listed apart in the source
[52] = biological target: looped peptide … (rabies virus strain ERA); remark: listed apart in the source
[53] = biological target: looped peptide … (rabies virus strain ERA); remark: listed apart in the source
[54] = biological target: looped peptide … (rabies virus strain ERA); remark: listed apart in the source
[55] = biological target: looped peptide … (rabies virus strain ERA); remark: listed apart in the source
[56] = biological target: looped peptide … (rabies virus strain ERA); remark: listed apart in the source
[57] = biological target: looped peptide … (rabies virus strain ERA); remark: listed apart in the source
[58] = biological target: looped peptide … (rabies virus strain ERA); remark: listed apart in the source
[59] = biological target: looped peptide … (rabies virus strain ERA); remark: listed apart in the source
[60] = biological target: looped peptide … (rabies virus strain ERA); remark: listed apart in the source
[61] = biological target: looped peptide … (rabies virus strain ERA); remark: listed apart in the source
[62] = biological target: looped peptide … (rabies virus strain ERA); remark: listed apart in the source
[63] = biological target: looped peptide … (rabies virus strain ERA); remark: listed apart in the source
[64] = biological target: looped peptide … (rabies virus strain ERA); remark: listed apart in the source
[65] = biological target: looped peptide … (rabies virus strain ERA); remark: listed apart in the source
[66] = biological target: looped peptide … (rabies virus strain ERA); remark: listed apart in the source
[67] = biological target: looped peptide … (rabies virus strain ERA); remark: listed apart in the source
[68] = biological target: looped peptide … (rabies virus strain ERA); remark: listed apart in the source
[69] = biological target: looped peptide … (rabies virus strain ERA); remark: listed apart in the source
[70] = biological target: looped peptide … (rabies virus strain ERA); remark: listed apart in the source
[71] = biological target: looped peptide … (rabies virus strain ERA); remark: listed apart in the source
[72] = biological target: looped peptide … (rabies virus strain ERA); remark: listed apart in the source
[73] = biological target: looped peptide … (rabies virus strain ERA); remark: listed apart in the source
[74] = biological target: looped peptide … (rabies virus strain ERA); remark: listed apart in the source
[75] = biological target: looped peptide … (rabies virus strain ERA); remark: listed apart in the source
[76] = biological target: looped peptide … (rabies virus strain ERA); remark: listed apart in the source
[77] = biological target: looped peptide … (rabies virus strain ERA); remark: listed apart in the source
[78] = biological target: looped peptide … (rabies virus strain ERA); remark: listed apart in the source
[79] = biological target: looped peptide … (rabies virus strain ERA); remark: listed apart in the source
[80] = biological target: looped peptide … (rabies virus strain ERA); remark: listed apart in the source
[81] = biological target: looped peptide … (rabies virus strain ERA); remark: listed apart in the source
[82] = biological target: looped peptide … (rabies virus strain ERA); remark: listed apart in the source
[83] = biological target: looped peptide … (rabies virus strain ERA); remark: listed apart in the source
[84] = biological target: looped peptide … (rabies virus strain ERA); remark: listed apart in the source
[85] = biological target: looped peptide … (rabies virus strain ERA); remark: listed apart in the source
[86] = biological target: looped peptide … (rabies virus strain ERA); remark: listed apart in the source
[87] = biological target: looped peptide … (rabies virus strain ERA); remark: listed apart in the source
[88] = biological target: looped peptide … (rabies virus strain ERA); remark: listed apart in the source
[89] = biological target: looped peptide … (rabies virus strain ERA); remark: listed apart in the source
[90] = biological target: looped peptide … (rabies virus strain ERA); remark: listed apart in the source
[91] = biological target: looped peptide … (rabies virus strain ERA); remark: listed apart in the source
[92] = biological target: looped peptide … (rabies virus strain ERA); remark: listed apart in the source
[93] = biological target: looped peptide … (rabies virus strain ERA); remark: listed apart in the source
[94] = biological target: looped peptide … (rabies virus strain ERA); remark: listed apart in the source
[95] = biological target: looped peptide … (rabies virus strain ERA); remark: listed apart in the source
[96] = biological target: looped peptide … (rabies virus strain ERA); remark: listed apart in the source
[97] = biological target: looped peptide … (rabies virus strain ERA); remark: listed apart in the source
[98] = biological target: looped peptide … (rabies virus strain ERA); remark: listed apart in the source

B1: human monoclonal antibody CRJA (antibody, V domains shown)
VH: EVQLLESGGGLVQPGGSLRLSCAASGFTFSNYAMSWVRQAPGKGLEWVSAISASGHSTYLADSVKGRFTISRDNSKNTLYLQMNSLRAEDTAVYYCAKDREVTMIVVLNGGFDYWGQGTRVTVSS
VL: EIVLTQSPATLSLSPGERATLACRASQTASRYLAWYQQKPGQAPRLLIYDTSNRATGIPARFSGSGSGTDFTLSISSLEPEDFAVYYCQQRFNWPWTFGQGTKVEFK
[1]
  OD value: 125
[2]
  OD value: 118
[3]
  OD value: 113
[4]
  OD value: 92
[5]
  OD value: 46
[6]
  OD value: 66
[7]
  OD value: 78
[8]
  OD value: 93
[9]
  OD value: 84
[10]
  OD value: 86
[11]
  OD value: 90
[12]
  OD value: 93
[13]
  OD value: 94
[14]
  OD value: 94
[15]
  OD value: 93
[16]
  OD value: 112
[17]
  OD value: 93
[18]
  OD value: 110
[19]
  OD value: 50
[20]
  OD value: 59
[21]
  OD value: 69
[22]
  OD value: 104
[23]
  OD value: 98
[24]
  OD value: 90
[25]
  OD value: 129
[26]
  OD value: 100
[27]
  OD value: 92
[28]
  OD value: 105
[29]
  OD value: 110
[30]
  OD value: 123
[31]
  OD value: 90
[32]
  OD value: 110
[33]
  OD value: 108
[34]
  OD value: 96
[35]
  OD value: 49
[36]
  OD value: 72
[37]
  OD value: 79
[38]
  OD value: 88
[39]
  OD value: 98
[40]
  OD value: 88
[41]
  OD value: 96
[42]
  OD value: 88
[43]
  OD value: 90
[44]
  OD value: 90
[45]
  OD value: 41
[46]
  OD value: 51
[47]
  OD value: 72
[48]
  OD value: 86
[49]
  OD value: 83
[50]
  OD value: 113
[51]
  OD value: 96
[52]
  OD value: 110
[53]
  OD value: 104
[54]
  OD value: 51
[55]
  OD value: 92
[56]
  OD value: 49
[57]
  OD value: 57
[58]
  OD value: 88
[59]
  OD value: 88
[60]
  OD value: 104
[61]
  OD value: 71
[62]
  OD value: 82
[63]
  OD value: 43
[64]
  OD value: 93
[65]
  OD value: 100
[66]
  OD value: 120
[67]
  OD value: 71
[68]
  OD value: 64
[69]
  OD value: 56
[70]
  OD value: 75
[71]
  OD value: 100
[72]
  OD value: 55
[73]
  OD value: 90
[74]
  OD value: 87
[75]
  OD value: 92
[76]
  OD value: 96
[77]
  OD value: 104
[78]
  OD value: 113
[79]
  OD value: 100
[80]
  OD value: 71
[81]
  OD value: 80
[82]
  OD value: 113
[83]
  OD value: 73
[84]
  OD value: 104
[85]
  OD value: 108
[86]
  OD value: 100
[87]
  OD value: 92
[88]
  OD value: 82
[89]
  OD value: 92
[90]
  OD value: 90
[91]
  OD value: 45
[92]
  OD value: 62
[93]
  OD value: 84
[94]
  OD value: 100
[95]
  OD value: 90
[96]
  OD value: 90
[97]
  OD value: 74
[98]
  OD value: 96
